Data published in US20220119534A1 (DRAGONFLY THERAPEUTICS, published 2022).

Legend:
[1] = molecular target: T1, Human CD32a H131 (FcγRIIa H131) (human, UniProt P12318 36-218, limits assumed, biotinylated); assay: SPR, summary of FcγR affinities
T1 construct: Bought recombinant receptor; also called hFcγRIIa H131; FcgRIIa H131
T1 sequence (looked up): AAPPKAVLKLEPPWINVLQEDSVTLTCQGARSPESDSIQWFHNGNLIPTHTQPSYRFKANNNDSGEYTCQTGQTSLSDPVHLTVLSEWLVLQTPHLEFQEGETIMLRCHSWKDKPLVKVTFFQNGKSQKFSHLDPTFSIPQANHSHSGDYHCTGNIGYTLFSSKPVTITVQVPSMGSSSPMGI
Procedure: (§1) Human and cynomolgus CD64, high and low affinity alleles of CD16a (V158 and F158, respectively), two alleles of CD32a (H131 and R131), CD16b, CD32b and cynomolgus CD16 were captured via biotin on a primed (according to the manufacturers instruction) Biacore chip. […] Due to irreversibility of streptavidin-biotin interaction, the capture step for all receptors except FcγRI (CD64) was performed just once prior to the start of the binding experiment. hCD64 and cyno CD64 capture on the CAP chip surface was performed during each cycle in accordance with the manufacturer's instructions for the Biotin CAPture kit.
(§2) Detailed description of each individual receptor binding is presented below.

[2] = molecular target: T2, Human CD64 (FcγRI) (human, UniProt P12314 16-288, biotinylated); assay: SPR, summary of FcγR affinities
T2 construct: Bought recombinant receptor; also called hFcγRI; Human FcγRI
Procedure: as §1, §2

[3] = molecular target: T3, Human CD32b (FcγRIIb) (human, UniProt P31994 46-217, limits assumed, biotinylated); assay: SPR, summary of FcγR affinities
T3 construct: Bought recombinant receptor; also called hFcγRIIb; CD32b (FcγR2b)
T3 sequence (looked up): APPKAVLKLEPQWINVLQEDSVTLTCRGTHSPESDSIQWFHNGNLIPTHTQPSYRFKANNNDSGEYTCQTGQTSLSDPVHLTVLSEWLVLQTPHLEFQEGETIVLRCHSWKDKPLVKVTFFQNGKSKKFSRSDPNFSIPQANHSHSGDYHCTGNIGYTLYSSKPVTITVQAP
Procedure: as §1, §2

[4] = molecular target: T4, Human CD32a R131 (FcγRIIa R131) (human, UniProt P12318 36-218, limits assumed, biotinylated); assay: SPR, summary of FcγR affinities
T4 construct: Bought recombinant receptor; also called hFcγRIIa R131; FcgRIIa R131
T4 sequence (looked up): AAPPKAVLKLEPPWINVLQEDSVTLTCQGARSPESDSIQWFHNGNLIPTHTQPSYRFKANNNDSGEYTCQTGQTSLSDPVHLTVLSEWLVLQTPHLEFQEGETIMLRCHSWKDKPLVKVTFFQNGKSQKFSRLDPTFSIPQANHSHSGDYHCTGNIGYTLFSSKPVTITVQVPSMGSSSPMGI
Procedure: as §1, §2

[5] = molecular target: T5, Human CD16a F158 (FcγRIIIa F158) (human, UniProt P08637 17-208, biotinylated); assay: SPR, summary of FcγR affinities
T5 construct: Bought recombinant receptor; also called hFcγRIIIa F158
Procedure: as §1, §2

[6] = molecular target: T6, Human CD16a V158 (FcγRIIIa V158) (human, UniProt P08637 17-208, biotinylated); assay: SPR, summary of FcγR affinities
T6 construct: Bought recombinant receptor; also called hCD16aV; hFcγRIIIa V158
Procedure: as §1, §2

[7] = molecular target: T7, Human CLEC12A-His (recombinant, K244 WT) (human, UniProt Q5QGZ9 65-265); assay: SPR 37C, two-state fit (ka1), average
T7 construct: Made in house (Dragonfly Tx); also called hCLEC12A; hCLEC12A-His; not shown: His tag
T7 sequence: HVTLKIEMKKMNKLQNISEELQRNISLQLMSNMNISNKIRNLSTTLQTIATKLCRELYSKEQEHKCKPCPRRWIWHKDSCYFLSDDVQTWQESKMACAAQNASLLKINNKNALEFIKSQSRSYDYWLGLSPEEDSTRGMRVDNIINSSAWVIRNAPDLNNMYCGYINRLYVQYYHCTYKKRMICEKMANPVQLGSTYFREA

T5 sequence (P08637 17-208 limits assumed): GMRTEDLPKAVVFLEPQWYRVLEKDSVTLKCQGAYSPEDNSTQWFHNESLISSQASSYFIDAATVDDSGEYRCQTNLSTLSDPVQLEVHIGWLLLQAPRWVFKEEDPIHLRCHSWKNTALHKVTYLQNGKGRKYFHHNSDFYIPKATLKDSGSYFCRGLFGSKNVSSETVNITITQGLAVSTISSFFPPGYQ
T6 sequence (P08637 17-208 F176V limits assumed): as the sequence (P08637 17-208 limits assumed) above, with F160V counted along it
T2 sequence (P12314 16-288 limits assumed): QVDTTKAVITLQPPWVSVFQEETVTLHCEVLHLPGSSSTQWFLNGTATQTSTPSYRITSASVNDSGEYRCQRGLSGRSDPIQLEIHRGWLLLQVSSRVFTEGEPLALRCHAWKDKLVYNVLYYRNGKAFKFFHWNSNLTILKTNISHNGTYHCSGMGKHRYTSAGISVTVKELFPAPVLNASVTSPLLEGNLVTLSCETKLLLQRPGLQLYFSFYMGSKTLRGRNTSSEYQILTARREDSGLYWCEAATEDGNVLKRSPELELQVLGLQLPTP

Kd [1]: 900 nM
Kd [2]: 5.1 nM
Kd [3]: 6270 nM
Kd [4]: 1250 nM
Kd [5]: 1270 nM
Kd [6]: 333 nM
kon [7]: 1.04e+07 M⁻¹ s⁻¹
B1: AB0089 TriNKET (bispecific antibody, human IgG1, kappa)
chain: QLQLQESGPGLVKPSETLSLTCTVSGFSLTNYGLHWIRQPPGKCLEWIGVIWVGGATDYNPSLKSRVTISVDTSKNQFSLKLSSVQAADTAVYYCAKGDYGDTLDYWGQGTLVTVSSGGGGSGGGGSGGGGSGGGGSDIQMTQSPSSLSASVGDRVTITCHASQNINFWLSWYQQKPGKAPKLLIYEASNLHTGVPSRFSGSGSGTDFTLTISSLQPEDFATYYCQQSHSYPLTFGCGTKLEIKGSDKTHTCPPCPAPELLGGPSVFLFPPKPKDTLMISRTPEVTCVVVDVSHEDPEVKFNWYVDGVEVHNAKTKPREEQYNSTYRVVSVLTVLHQDWLNGKEYKCKVSNKALPAPIEKTISKAKGQPREPRVYTLPPCRDELTKNQVSLTCLVKGFYPSDIAVEWESNGQPENNYKTTPPVLVSDGSFTLYSKLTVDKSRWQQGNVFSCSVMHEALHNHYTQKSLSLSPG
heavy: EVQLVESGGGLVKPGGSLRLSCAASGFTFSSYSMNWVRQAPGKGLEWVSSISSSSSYIYYADSVKGRFTISRDNAKNSLYLQMNSLRAEDTAVYYCARGAPIGAAAGWFDPWGQGTLVTVSSASTKGPSVFPLAPSSKSTSGGTAALGCLVKDYFPEPVTVSWNSGALTSGVHTFPAVLQSSGLYSLSSVVTVPSSSLGTQTYICNVNHKPSNTKVDKKVEPKSCDKTHTCPPCPAPELLGGPSVFLFPPKPKDTLMISRTPEVTCVVVDVSHEDPEVKFNWYVDGVEVHNAKTKPREEQYNSTYRVVSVLTVLHQDWLNGKEYKCKVSNKALPAPIEKTISKAKGQPREPQVCTLPPSRDELTENQVSLTCLVKGFYPSDIAVEWESNGQPENNYKTTPPVLDSDGSFFLYSWLTVDKSRWQQGNVFSCSVMHEALHNHYTQKSLSLSPG
light: DIQMTQSPSSVSASVGDRVTITCRASQGISSWLAWYQQKPGKAPKLLIYAASSLQSGVPSRFSGSGSGTDFTLTISSLQPEDFATYYCQQGVSFPRTFGGGTKVEIKRTVAAPSVFIFPPSDEQLKSGTASVVCLLNNFYPREAKVQWKVDNALQSGNSQESVTEQDSKDSTYSLSSTLTLSKADYEKHKVYACEVTHQGLSSPVTKSFNRGEC
notes: F3' format heterodimer of three chains; human IgG1 Fc with EW-RVT and Y349C/S354C mutations; also called AB0089 Lot AB0089-002; CLEC12A TriNKET AB0089
